Measured values from PMC9792439 (Biochimica et biophysica acta. General subjects, 2022).

Target: GST-tagged wild type human UBQLN2 (human, UniProt Q9UHD9 1-624)
Assay: pull-down

Sequence of GST-tagged wild type human UBQLN2 (Q9UHD9 whole entry): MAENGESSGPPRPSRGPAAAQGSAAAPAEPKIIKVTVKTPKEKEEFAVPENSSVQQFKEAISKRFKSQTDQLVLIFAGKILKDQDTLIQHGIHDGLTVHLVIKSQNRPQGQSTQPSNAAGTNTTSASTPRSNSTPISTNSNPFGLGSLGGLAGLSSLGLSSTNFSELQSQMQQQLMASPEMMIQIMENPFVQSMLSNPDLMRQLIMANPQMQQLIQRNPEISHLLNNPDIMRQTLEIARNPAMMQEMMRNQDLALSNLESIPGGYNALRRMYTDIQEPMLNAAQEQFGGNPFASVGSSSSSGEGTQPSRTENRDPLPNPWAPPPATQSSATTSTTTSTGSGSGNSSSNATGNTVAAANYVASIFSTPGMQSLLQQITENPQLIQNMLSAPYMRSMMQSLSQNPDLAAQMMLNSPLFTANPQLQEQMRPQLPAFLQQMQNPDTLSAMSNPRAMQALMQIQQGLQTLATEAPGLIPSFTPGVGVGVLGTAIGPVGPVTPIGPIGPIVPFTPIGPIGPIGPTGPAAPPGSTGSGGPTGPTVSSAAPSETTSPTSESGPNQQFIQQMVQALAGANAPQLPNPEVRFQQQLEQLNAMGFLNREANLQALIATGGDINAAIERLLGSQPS

B1: HSPA1B ATP-binding domain (1 to 385 aa) with 6 His tag (domain or fragment)
chain: not shown
Does B1 bind?
Result: binds
